Assay results: patent publication US20140170149A1

How the values were obtained:
[1] = target: hu-HER2-ch(III) (human; chicken (Gallus gallus)) (UniProt P04626); test: flow cytometry on CHO-S cells transiently transfected with hu-HER2-ch(III), PE-goat anti-human IgG, MFI (Example 24)
[2] = target: hu-HER2-ch(I) (chicken (Gallus gallus); human) (UniProt P04626); test: flow cytometry on CHO-S cells transiently transfected with hu-HER2-ch(I), PE-goat anti-human IgG, MFI (Example 24)
[3] = target: hu-HER2-ch(IV) (human; chicken (Gallus gallus)) (UniProt P04626); test: flow cytometry on CHO-S cells transiently transfected with hu-HER2-ch(IV), PE-goat anti-human IgG, MFI (Example 24)

B1: HER2 HuMab 153 (antibody, V domains shown)
VH: QVQLVESGGGVVQPGRSLRLSCAASGFTFSDYVIHWVRQAPGKGLEWVTVISYDGSNKYYADSVKGRFTISRDNSKNTLYLQMNSLSAEDTAMYYCARGGITGTTGVFDYWGQGTLVTVSS
VL: DIQMTQSPSSLSASVGDRVTITCRASQGISSWLAWYQQKPEKAPKSLIYDASSLQSGVPSRFSGSGYGTDFSLTISSLQPEDFAIYYCQQYKSYPITFGQGTRLEIK
EC50 (read off the curve) [1]: 0.03 µg/mL
EC50 (read off the curve) [2]: 0.05 µg/mL
EC50 (read off the curve) [3]: 0.04 µg/mL
